Experimental data from patent US12371675B2, “Process and microorganism for synthesis of adipic acid from carboxylic acids” (THE GOVERNING COUNCIL OF THE UNIVERSITY OF TORONTO, priority 2015, dated 2025).

B1: PS2358: OYE protein from Pseudomonas syringae pv. tomato str. DC3000 (protein)
chain: MSALFEPFKLKDVTLRNRIAIPPMCQYSAIDGVVNDWHHVHLASMARGGAGLLVVEATAVAPEGRITPGCTGIWNDEQAQAFVPIVKAIKDAGCVPGIQIAHAGRKASANRPWEGDDHIVASDSRGWDTIAPSAIAFGANLPKVPRAMTLDDIARVRQNFVDAARRARDAGFEWIELHFAHGYLGQSFFSEHSNQRTDEYGGSFDNRSRFLLETLAAVREVWPENLPLTARFGVLEYDGRDEQTLTESIELARRFKAGGLDLLSVSVGFSTPDANIPWGPAFMGPIAERVRREAAIPVTSAWGFGEPKLAEEAVKSGQLDLVSIGRAHLADPHWAYFAAKELGVEKSAWTLPAPYAHWLERYR
B2: PA4356: OYE protein from Pseudomonas aeruginosa PAO1 (protein)
chain: MATLFDPIVLGDLELPNRIVMAPLTRCRADEGRVPNALMAEYYAQRADAGLILSEATAVTPMGVGYPDTPGIWSDDQVRGWSNVTKAVHAAGGRIFLQLWHVGRISDPLYLNGELPVAPSAIAAEGHVSLVRPKRPYVTPRALDTEEIADIVEAYRQGAERAKAAGFDGVEIHGANGYLLDQFLQDSTNKRTDRYGGSIENRARLLLEVTDAAISVWGAQRVGVHLAPRADSHDMGDSNRLETFSHVARELGKRGIAFICAREAQADDSIGVALKKAFGGPYIANEQFTLDSANAILAKGDADAVAFGVPFIANPDLVERLRQGAELNPPRPETFYTGGTEGYLDYPTLA
B3: PS4251: OYE protein from Pseudomonas syringae pv. tomato str. DC3000 (protein)
chain: MTTIFDPITLGDLQLPNRIILAPLTRCRADEGRVPNALMSEYYVQRASAGLILTEATSVTPMGVGYPDTPGIWSNDQVRGWSNITQAVHNAGGRIVLQLWHVGRISHPSYLNGETPVAPSAIAAQGHVSLMRPITPLPTPRALELAEIGDIVEAYRVGAENAKAAGFDGVEVHGANGYLLEQFLLTGSNQRTDQYGGSLENRARLLLEVTDAVIDVWGAGRVGVHLSPRFDMHNMSDENRAETFSYVAKELGKRGIAFICARERDAEDSLGPQLKKDFGGVYIANEKFTKDSANAWLAEGKADAFAFGVPYIANPDLPERLASDAPLNEAHPETFYGKGPVGYIDYPRL
B4: PSPH1370: OYE protein from Pseudomonas syringae pv. phaseolicola 1448A (protein)
chain: MSLLLEPYTLRQLTLRNRIAVSPMCQYSSVDGLANDWHLVHLGSRAVGGAGLVITEAMAVTPDGRITPEDLGLWNDEQIEPLQRITRFINAQGAVAGIQLAHAGRKASTWRPWLGKHGSISLNEGGWTPVGPSAIAFDPQHTAPVQLSETQIQELIKAFVDSARRALTAGFKVVEIHAAHGYLLHQFLSPLSNQRTDQYGGSFENRIRLTLQVTEAVRAVWPEELPLFVRVSATDWVEDGWNADETVELARRLKALGTDLIDVSSGGTSANAEIPVGPGYQTRFAERVRKESEIATGTVGMITDPAQAEHILRTGQADIILLARELLRDPYWPLRADEDLGGRLATWPAQYQRATHRDQPIHESDLRD
B5: PS1143: OYE protein from Pseudomonas syringae pv. tomato str. DC3000 (protein)
chain: MSAAALFTPFRLGGLELSSRVVMAPMTRSFSPGHVPNSKVIEYYRRRAAAGVGLIITEGTTVNHPASNGYPNVPQFFGDAPLAGWKKVVDAVHAEGGKIAPQLWHVGAVRRLGTEPDGSIPAYGPMEKVKDGQVLVHGMSKQDIDEVVAAFAQAAADAKAIGMDGVEIHGAHGYLVDQFFWEGSNQRSDEYGGSLANRSRFAIELIKAVRAAVGPDYPIIFRFSQWKQQDYSARLVQTPEALGEFVQPLSDAGVDIFHCSTRRFWEPEFEGSELNLAGWTRKLTGKPTITVGSVGLDGEFLQFMVNTEKVAQPASLENLLERLGKDEFDLVAVGRALLVDPDWAVKVREGREQDILPFSREALTTLV
B6: PP1244: OYE protein from Pseudomonas putida KT2440 (protein)
chain: MSALFEPYTLKDVTLRNRIAIPPMCQYMAEDGMINDWHHVHLAGLARGGAGLLVVEATAVAPEGRITPGCAGIWSDAHAQAFVPVVQAIKAAGSVPGIQIAHAGRKASANRPWEGDDHIAADDARGWETIAPSAIAFGAHLPKVPREMTLDDIARVKQDFVDAARRARDAGFEWIELHFAHGYLGQSFFSEHSNKRTDAYGGSFDNRSRFLLETLAAVREVWPENLPLTARFGVLEYDGRDEQTLEESIELARRFKAGGLDLLSVSVGFTIPDTNIPWGPAFMGPIAERVRREAKLPVTSAWGFGTPQLAEAALQANQLDLVSVGRAHLADPHWAYFAAKELGVEKASWTLPAPYAHWLERYR
B7: PSPH1060: OYE protein from Pseudomonas syringae pv. phaseolicola 1448A (protein)
chain: MSVEALFTPFRLGSLELSSRVVMAPMTRSFSPGHVPNSKVIEYYRRRAAAGVGLIVTEGTTVNHKASNGYPNVPQFFGDAPLAGWRKVVEAVHAEGGKIVPQLWHVGAVRRPGTEPDGSVPAYGPMEKVKDGQVLVHGMSKQDIDDVVAAFAQAAVDAKAIGMDGVEIHGAHGYLIDQFFWEGSNQRSDEYGGSLAKRSRFAIELIKAVRVAVGADYPIIFRFSQWKQQDYTARLVQTPEALGEFLQPLADAGVDIFHCSTRRFWEPEFEGSDLNLAGWTRKLTGKPTITVGSVGLDGEFLQFMVNTDKVAQPASLENLLKRLGNDEFDLVAVGRALLVDPDWALKVREGREQDILPFSREALTTLV
B8: PP0911: OYE protein from Pseudomonas putida KT2440 (protein)
chain: MTTLFDPIKLGDLQLPNRIIMAPLTRCRADEGRVPNALMAEYYVQRASAGLILSEATSVSPMGVGYPDTPGIWNDEQVRGWNNVTKAVHAAGGRIFLQLWHVGRISHPSYLNGELPVAPSAIQPKGHVSLVRPLSDYPTPRALETEEINDIVEAYRSGAENAKAAGFDGVEIHGANGYLLDQFLQSSTNQRTDRYGGSLENRARLLLEVTDAAIEVWGAQRVGVHLAPRADAHDMGDADRAETFTYVARELGKRGIAFICSREREADDSIGPLIKEAFGGPYIVNERFDKASANAALASGKADAVAFGVPFIANPDLPARLAADAPLNEAHPETFYGKGPVGYIDYPRL
B9: PP1466: OYE protein from Pseudomonas putida KT2440 (protein)
chain: MSLLLEPYTLRQLTLPNRIAVSPMCQYSAIDGLANDWHLVHLGCRAVGGAGLVISEAVAVTADGRITAEDLGLWNDDQIVPLQRITRFITAQGAVPGIQLAHAGRKASTYRPWLGKQGSVKLEDGGWQPVGPSKIAFDPQHTPPRELSKDEIQDVIDAFVASTERALKAGFKVVEIHAAHGYLLHQFLSPLSNQRRDEYGSCFENRIRLTLQVVEAVRKVWPAELPLFVRVSATDWVEDGWNPDETVELARRLRVLGVDLIDVSSGGTSVNAEIPTGPGYQTRFAERVRKEAEIATGTVGMITEPAQAEHILRTGQADVIFLARELLRDPYWPLHADDDLGGNKATWPAQYQRATSRANPIHESDLRD
B10: PA2932: OYE protein from Pseudomonas aeruginosa PAO1 (protein)
chain: MSNLLLSPLAVGNLALRNRIVMAPMTRSRAQQPGDVPTALNALYYAQRAGAGLIVSEGTQISHLGQGYAYTPGIYSEAQLAGWRQVTEAVHAAGGLIAAQLWHVGRMSHRSLQAGGEAPIAPSPIQAKAQVFIADGQGGGSMAPADAPREMTLEDIRRVRDEFVRAARNALDAGFDLVELHGANGYLIDQFLASASNRRSDAYGGSLENRARFLLEIVDALVAAVGAERVGLRLSPWGTINDMHDDEPEAMTLYLAEALQRRGIAYLHLAEWEWSGGPAYPQGFRERLRERFRAPLIVCGNYDAERAEAILQAGLADAVAIGRPFIANPDLVERIRLGAPLAEANQARFYGGDAAGYTDYPTLGQSATA
B11: LMO2471: OYE protein from Listeria monocytogenes EGD-e (protein)
chain: MSKLFSEYKLKDVTLKNRIVMSPMCMYSVENKDGIATDFHFAHYVSRAAGGTGLVILEATAVQEVGRISEFDLGLWNDEQVPALKKLVGGLHYHGAKAGIQLAHAGRKAVLPGEIVAPSAIAFDEKSDKPVELTKEAIKEVVADFKRAAYRAKEAGFDVIEIHAAHGYLIHQFLSPITNRREDNYGGPAGNRYKILSDIIKAVKEVWDGPIIVRVSATDYAHGGLQLEDHIPFAKWMKADGVELIDVSTGGLVNVAPPVFPGYQVPFADEIRRGAGIATGALGLITRGEQAEEILCNERADLIIVGRELLRNPYFAKDAAKQLGETIEAPKQYSRAWK
B12: NE2398: OYE protein from Nifrosomonas europaea ATCC 19718 (protein)
chain: MLFNPLQVGSLTLPNRILLAPLTRARADAGHMPNALMAEYYSQRATGGLLISECTMVAPGTSAFVNEPGIYNDAQIAAWRQVTDAVHAKGGRIFMQIWHAGRAAYPGAADGAPIVSSSATAIEGEIHTPQGKVPHAVPRPLTVDEIPGIVAAFAQGARNAIAAGFDGVEVHGANGYLIDQFLRDTPNQRTDAYGGSLENRARLLFEVLTAVTQAIGSERVGLRLSPLNSFNSMKDSDPLALIGFLADRLNAFKLAYLHVMRADFFGVQKADVMPVAREKYKGVLVGNMGYSADEAEAAIAEGRLDAVAFGTAFLANPDLPARIRAKAPLNAPDSNTFYAGGAKGYTDYPTLQLA

Experiment: OYE hydrogenation activity screen, NADPH oxidation at 340 nm
Assay type: biochemical
Settings: 1 mM substrate, 0.25 mM NADPH, 2.5 μg protein; cut-off 0.05 U/mg protein; ND = not detected
Protocol: 25 putative OYE genes (Table 1) were cloned based on the Pfam domain of the FMN oxidoreductase family PF00724. Purified OYEs were screened for hydrogenation activity against acrolein, 2-cyclohexn-1-one, cis,cis-muconic acid, trans,trans-muconic acid, and 2-hexendioic acid. Substrate specificity was measured spectrophotometrically in 96-well plates by following incubation for 20 min at room temperature in the anaerobic chamber. Buffers and reagents were also degassed and sparged with Ar. Reaction mixtures contained potassium phosphate (50 mM and pH 7.0), NaCl (10 mM), NADPH (0.25 mM), various substrates (1 mM) and protein (2.5 μg) in a final volume of 200 μL. Enzyme reactions were monitored by following the decrease in absorbance at 340 nm (ε340 nm=6,200/M·cm) as a measure of the conversion of the cofactor NADPH to NADP+.

Molecule | Activity [U/mg protein] 2-cyclohexen-1-one | Activity [U/mg protein] acrolein [U/mg protein]
B1 | 0.13 U/mg protein | –
B2 | .15 U/mg protein | –
B3 | 0.09 U/mg protein | –
B4 | 0.18 U/mg protein | –
B5 | 0.18 U/mg protein | –
B6 | 0.25 U/mg protein | 0.06
B7 | 0.14 U/mg protein | –
B8 | 0.15 U/mg protein | –
B9 | 0.14 U/mg protein | –
B10 | 13 U/mg protein | –
B11 | 0.08 U/mg protein | –
B12 | 0.19 U/mg protein | –
